# Reference: the supplement of paper PMC9112550, “Optimization of the antimicrobial peptide Bac7 by deep mutational scanning” (BMC Biology, 2022)
# Test system: Escherichia coli TOP10
# Experiment: shrunken log2 fold change of peptide-encoding DNA abundance (4.5 h post-induction vs induction); higher = less antimicrobial activity (less host growth inhibition)
# Settings: time post-induction: 4.5 h; library: site-saturation at positions 5, 18, 19, 20
# 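Further: peptides expressed intracellularly from a pBAD plasmid library in pooled LB shake-flask culture, induced with 0.3% L-arabinose, DNA abundance read by NGS, three biological replicates, DESeq2 with apeglm shrinkage.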
row,Sequence,shrunken log2 fold change
1,RRIRQRPPRLPRPRPRPGIDPRP,0.0179
2,RRIRYRPPRLPRPRPRPHIIPRP,-0.501
3,RRIRRRPPRLPRPRPRPAFIPRP,0.115
4,RRIRGRPPRLPRPRPRPDYIPRP,-0.144
5,RRIRGRPPRLPRPRPRPHPVPRP,0.412
6,RRIRYRPPRLPRPRPRPVNEPRP,-0.109
7,RRIRMRPPRLPRPRPRPAPLPRP,0.541
8,RRIRWRPPRLPRPRPRPFVQPRP,-0.184
9,RRIRTRPPRLPRPRPRPNLQPRP,-0.0672
10,RRIRNRPPRLPRPRPRPIDEPRP,-0.0586
11,RRIRNRPPRLPRPRPRPFLVPRP,-0.0697
12,RRIRIRPPRLPRPRPRPWETPRP,-0.0306
13,RRIRDRPPRLPRPRPRPIKIPRP,0.0725
14,RRIRDRPPRLPRPRPRPAWCPRP,0.183
15,RRIRFRPPRLPRPRPRPEHSPRP,-0.00202
16,RRIRHRPPRLPRPRPRPLLWPRP,0.0832
17,RRIRFRPPRLPRPRPRPCYLPRP,-0.891
18,RRIRNRPPRLPRPRPRPCDSPRP,0.11
19,RRIRHRPPRLPRPRPRPLTLPRP,-0.193
20,RRIRERPPRLPRPRPRPIPVPRP,-0.217
21,RRIRQRPPRLPRPRPRPHGAPRP,0.0316
22,RRIRRRPPRLPRPRPRPWYVPRP,0.0457
23,RRIRIRPPRLPRPRPRPSMCPRP,-1.33
24,RRIRMRPPRLPRPRPRPINAPRP,-0.0931
25,RRIRIRPPRLPRPRPRPPRPPRP,0.822
26,RRIRFRPPRLPRPRPRPFKQPRP,-0.242
27,RRIRGRPPRLPRPRPRPAMFPRP,0.455
28,RRIRSRPPRLPRPRPRPTRHPRP,0.227

row,Sequence,shrunken log2 fold change
1,RRIRSRPPRLPRPRPRPDMHPRP,-0.118
2,RRIRSRPPRLPRPRPRPHNIPRP,-0.211
3,RRIRPRPPRLPRPRPRPLNHPRP,-0.363
4,RRIRIRPPRLPRPRPRPPDDPRP,0.494
5,RRIRERPPRLPRPRPRPQIWPRP,0.0182
6,RRIRWRPPRLPRPRPRPTRTPRP,0.83
7,RRIRHRPPRLPRPRPRPKQEPRP,0.0169
8,RRIRRRPPRLPRPRPRPTKIPRP,0.0521
9,RRIRMRPPRLPRPRPRPNKVPRP,0.0418
10,RRIRHRPPRLPRPRPRPRENPRP,0.0589
11,RRIRIRPPRLPRPRPRPWFLPRP,-0.802
12,RRIRVRPPRLPRPRPRPWPVPRP,0.197
13,RRIRDRPPRLPRPRPRPGWVPRP,0.223
14,RRIRVRPPRLPRPRPRPSKRPRP,-0.229
15,RRIRTRPPRLPRPRPRPRREPRP,0.351
16,RRIRQRPPRLPRPRPRPAFEPRP,-0.0876
17,RRIRDRPPRLPRPRPRPDGDPRP,-0.0107
18,RRIRDRPPRLPRPRPRPTDAPRP,-0.036
19,RRIRSRPPRLPRPRPRPFLSPRP,-0.063
20,RRIRERPPRLPRPRPRPWIDPRP,-0.0474
21,RRIRARPPRLPRPRPRPLMPPRP,0.197
22,RRIRFRPPRLPRPRPRPSLAPRP,0.119
23,RRIRMRPPRLPRPRPRPRPWPRP,0.996
24,RRIRCRPPRLPRPRPRPIWNPRP,-0.343
25,RRIRVRPPRLPRPRPRPFWEPRP,-0.0891
26,RRIRLRPPRLPRPRPRPDAVPRP,-0.199
27,RRIRVRPPRLPRPRPRPPRLPRP,0.294
